These results are taken from PMC10143413.

A word on the Kd: it is the equilibrium constant for the complex coming apart. A higher Kd goes with weaker binding. What is called koff is a measure of how fast the partners let go of each other. Read a low koff as a long-lived complex. The kon is the rate constant with which the complex forms.

Assay [1] deals with Pyruvate kinase PKM1, purified from rabbit skeletal muscle (rabbit) (UniProt P11974). The assay can be described thus: SPR; Biacore T200, 25 °C; PKM1 amine-coupled to a CM5 chip, creatine kinase as analyte in 0.05 M potassium phosphate buffer pH 7.4, 10 µL/min for 5 min; global fit to the 1:1 binding model. In general terms: SPR reads the build-up and loss of mass on a sensor chip optically.

In assay [2] the target is Lactate dehydrogenase, purified from rabbit skeletal muscle (rabbit) (UniProt P13491). The assay can be described thus: SPR; Biacore T200, 25 °C; GAPDH, LDH or aldolase A amine-coupled to a CM5 chip, PKM1 as analyte in 0.05 M potassium phosphate buffer pH 7.4, 10 µL/min for 5 min; global fit to the 1:1 binding model.
The target of assay [3] is Aldolase A, purified from rabbit skeletal muscle (rabbit) (UniProt P00883). Described as above.
Sequence of Aldolase A, purified from rabbit skeletal muscle (rabbit) (P00883 whole entry): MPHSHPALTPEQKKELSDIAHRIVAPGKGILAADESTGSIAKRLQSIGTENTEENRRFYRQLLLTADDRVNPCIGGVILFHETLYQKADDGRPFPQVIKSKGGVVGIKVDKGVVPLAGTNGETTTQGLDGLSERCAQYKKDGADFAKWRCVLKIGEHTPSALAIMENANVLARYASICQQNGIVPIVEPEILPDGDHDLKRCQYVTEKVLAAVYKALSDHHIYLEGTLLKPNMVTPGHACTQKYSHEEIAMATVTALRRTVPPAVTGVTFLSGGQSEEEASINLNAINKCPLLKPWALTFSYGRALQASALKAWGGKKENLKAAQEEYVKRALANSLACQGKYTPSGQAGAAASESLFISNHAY

Sequence of Pyruvate kinase PKM1, purified from rabbit skeletal muscle (P11974 whole entry): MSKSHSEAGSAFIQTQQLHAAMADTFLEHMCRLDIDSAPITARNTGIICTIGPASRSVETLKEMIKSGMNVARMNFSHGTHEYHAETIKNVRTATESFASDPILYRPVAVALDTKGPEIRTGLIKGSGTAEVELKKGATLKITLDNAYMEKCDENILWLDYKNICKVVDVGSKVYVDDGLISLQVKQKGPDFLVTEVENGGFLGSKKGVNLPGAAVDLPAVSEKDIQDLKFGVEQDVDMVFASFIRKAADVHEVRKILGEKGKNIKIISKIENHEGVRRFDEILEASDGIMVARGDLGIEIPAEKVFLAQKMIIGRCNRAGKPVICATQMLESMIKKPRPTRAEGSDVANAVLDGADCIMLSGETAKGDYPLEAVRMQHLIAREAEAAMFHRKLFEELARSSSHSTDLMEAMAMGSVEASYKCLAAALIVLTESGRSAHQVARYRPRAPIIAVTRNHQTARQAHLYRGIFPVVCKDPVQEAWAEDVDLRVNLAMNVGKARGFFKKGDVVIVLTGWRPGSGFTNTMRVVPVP
Sequence of Pyruvate kinase PKM1, purified from rabbit skeletal muscle, P11974-1 1-531 (enzyme; other documents disagree on this pair) (P11974 whole entry): as above
Sequence of Pyruvate kinase PKM1, purified from rabbit skeletal muscle (rabbit) (P11974 whole entry): as above

In assay [1], “Creatine kinase from rabbit muscle (from UniProt P00563 1-381) (enzyme)” displayed a dissociation constant (Kd) of 10.7 nM, a koff of 0.000924 s⁻¹ and a kon of 86400 M⁻¹ s⁻¹.

In assay [2], “Pyruvate kinase PKM1, purified from rabbit skeletal muscle (from UniProt P11974-1 1-531) (enzyme)” came in with a dissociation constant (Kd) of 4.8 µM, a dissociation rate constant (koff) of 0.00657 s⁻¹ and an on-rate constant (kon) of 1370 M⁻¹ s⁻¹.

In assay [3], “Pyruvate kinase PKM1, purified from rabbit skeletal muscle, P11974-1 1-531 (enzyme; other documents disagree on this pair)” displayed a Kd of 1410 nM, a dissociation rate constant (koff) of 0.00238 s⁻¹ and an on-rate (kon) of 1690 M⁻¹ s⁻¹.
